Among the data in the supplement of paper PMC10567573 are protein stability index values, retold here.

The labels stand for the following.
B1: NECAB1 (parent)
chain: NLDTEELCEYFSQHLGEYENVLAA
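Also: lentivirally expressed fusions sorted by FACS into six bins by GFP to DsRed ratio, PSI derived from sequencing read proportions per bin multiplied by bin number.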

Variants of B1 are the subject of the data set. The experiment in a line: protein stability index of a GFP-peptide fusion (GPS, HEK-293T) (PSI 1-6); higher = more stable. The following applies: c terminus: a fixed tail appended.
For NLDTEELCEYFSQHLGEYEWVLAA [N20W], the protein stability index is 2.03.
In the case of NLDTEELCEYFSQHLGEYESVLAA [N20S], the protein stability index was 3.05.
Take NLDTEELCEYFSQHLGEYEFVLAA [N20F]: the protein stability index stood at 1.66.
As to NLDTEELCEYFSLHLGEYENVLAA [Q13L], the protein stability index was 2.08.
In the case of NLDTEELCEYFSNHLGEYENVLAA [Q13N], the protein stability index amounted to 2.89.
With NLDTEELCEYFSWHLGEYENVLAA [Q13W], the protein stability index was 2.1.
As to NLDTEELCEYFSIHLGEYENVLAA [Q13I], the protein stability index amounted to 2.19.
The figure for NLDTEELCEYFSRHLGEYENVLAA [Q13R] is 3.25; for NLDTEELCEYFSHHLGEYENVLAA [Q13H] it is 2.32; for NLDTEELCEYFSMHLGEYENVLAA [Q13M] it is 2.06.
Regarding NLDTEELCEYFSVHLGEYENVLAA [Q13V], the protein stability index was found to be 2.7.
With NLDTEELCEYFSYHLGEYENVLAA [Q13Y], the protein stability index turned out to be 2.2.
NLDTEELCEYFSQHLGEYENVLAQ [A24Q]: the protein stability index was 3.12.
The figure for NLDTEELCEYFSQHLGEYENVLAP [A24P] is 3.43; for NLDTEELCEYFSQHLGEYENVLAG [A24G] it is 2.22; for NLDTEELCEYFSQHLGEYENVLAH [A24H] it is 3.35.
As to NLDTEELCEYFSQHLGEYENVLAL [A24L], the protein stability index amounted to 2.82.
As for NLDTEELCEYFSQHLGEYENVLAR [A24R], the protein stability index was determined as 1.82.
For the variant NLDTEELCEYFSQHLGEYENVLAT [A24T], the protein stability index was 2.99.
The figure for NGDTEELCEYFSQHLGEYENVLAA [L2G] is 3.85; for NCDTEELCEYFSQHLGEYENVLAA [L2C] it is 2.25; for NNDTEELCEYFSQHLGEYENVLAA [L2N] it is 3.72.
Consider NKDTEELCEYFSQHLGEYENVLAA [L2K], for which the protein stability index is 3.9.
Consider NVDTEELCEYFSQHLGEYENVLAA [L2V], for which the protein stability index stood at 1.79.
For NEDTEELCEYFSQHLGEYENVLAA [L2E], the protein stability index turned out to be 4.97.
The figure for NQDTEELCEYFSQHLGEYENVLAA [L2Q] is 4.12; for NPDTEELCEYFSQHLGEYENVLAA [L2P] it is 1.8.
Consider NRDTEELCEYFSQHLGEYENVLAA [L2R], for which the protein stability index turned out to be 4.
In the case of NWDTEELCEYFSQHLGEYENVLAA [L2W], the protein stability index was 2.21.
The figure for NADTEELCEYFSQHLGEYENVLAA [L2A] is 2.99; for NLDTKELCEYFSQHLGEYENVLAA [E5K] it is 1.94; for NLDTCELCEYFSQHLGEYENVLAA [E5C] it is 1.92.
Consider NLDTWELCEYFSQHLGEYENVLAA [E5W], for which the protein stability index came to 1.98.
As for NLDTDELCEYFSQHLGEYENVLAA [E5D], the protein stability index turned out to be 3.04.
Next, NLDTEELCEYFSQHLGEYENVRAA [L22R]: 4.39; NLDTEELCEYFSQHLGEYENVKAA [L22K]: 4.61; NLDTEELCEYFSQHLGEYENVYAA [L22Y]: 3.52.
For the variant NLDTEELCEYFSQHLGEYENVNAA [L22N], the protein stability index turned out to be 4.36.
Turning to NLDTEELCEYFSQHLGEYENVHAA [L22H], the protein stability index was found to be 4.32.
As for NLDTEELCEYFSQHLGEYENVMAA [L22M], the protein stability index amounted to 3.71.
Turning to NLDTEELCEYFSQHLGEYENVWAA [L22W], the protein stability index was 2.55.
In the case of NLDTEELCEYFSQHLGEYENVSAA [L22S], the protein stability index came out at 4.64.
Consider NLDTEELCEYFSQHLGEYENVEAA [L22E], for which the protein stability index was 4.42.
For the variant ILDTEELCEYFSQHLGEYENVLAA [N1I], the protein stability index is 2.66.
Next, ELDTEELCEYFSQHLGEYENVLAA [N1E]: 3.7; LLDTEELCEYFSQHLGEYENVLAA [N1L]: 2.53; KLDTEELCEYFSQHLGEYENVLAA [N1K]: 3.33.
Regarding TLDTEELCEYFSQHLGEYENVLAA [N1T], the protein stability index turned out to be 3.22.
ALDTEELCEYFSQHLGEYENVLAA [N1A]: the protein stability index is 2.94.
As for NLDTEELFEYFSQHLGEYENVLAA [C8F], the protein stability index is 3.26.
Consider NLDTEELTEYFSQHLGEYENVLAA [C8T], for which the protein stability index came to 3.62.
Consider NLDTEELGEYFSQHLGEYENVLAA [C8G], for which the protein stability index came out at 4.56.
With NLDTEELREYFSQHLGEYENVLAA [C8R], the protein stability index stood at 3.17.
In the case of NLDTEELWEYFSQHLGEYENVLAA [C8W], the protein stability index turned out to be 3.28.
Next, NLDTEELKEYFSQHLGEYENVLAA [C8K]: 3.9; NLDTEELPEYFSQHLGEYENVLAA [C8P]: 4.44; NLDTEELHEYFSQHLGEYENVLAA [C8H]: 4.07.
With NLDTEELSEYFSQHLGEYENVLAA [C8S], the protein stability index came out at 3.83.
As for NLDTEELCETFSQHLGEYENVLAA [Y10T], the protein stability index worked out at 4.59.
For NLDTEELCEPFSQHLGEYENVLAA [Y10P], the protein stability index is 4.47.
NLDTEELCEGFSQHLGEYENVLAA [Y10G]: the protein stability index was 4.44.
For NLDTEELCEYFSQHLAEYENVLAA [G16A], the protein stability index amounted to 2.24.
Consider NLDTEELCEYFSQHLMEYENVLAA [G16M], for which the protein stability index came out at 1.99.
Regarding NLDTEELCEYFSQHLVEYENVLAA [G16V], the protein stability index was determined as 2.07.
The figure for NLDTEELCEYFSQHLYEYENVLAA [G16Y] is 1.58; for NLDTEELCEYFSQHLIEYENVLAA [G16I] it is 2.14.
For NLDTEELCEYFSQHLREYENVLAA [G16R], the protein stability index is 1.78.
With NLDTEELCEYFSQHLFEYENVLAA [G16F], the protein stability index worked out at 2.27.
With NLDTEELCEYFSQHLGEYENVLTA [A23T], the protein stability index is 3.06.
On to NLDTEELCEYFSQHLGEYENVLHA [A23H], for which the protein stability index was 2.83.
As to NLDTEELCEYFSQHLGEYENVLNA [A23N], the protein stability index amounted to 3.98.
NLDTEELCEYFSQHLGEYENVLCA [A23C]: the protein stability index came to 2.46.
Consider NLDTEELCEYFSQHLGEYENVLPA [A23P], for which the protein stability index was 3.65.
Turning to NLDTEELCEYFSQHLGEYENVLGA [A23G], the protein stability index stood at 2.93.
For the variant NLDTEELCEYFSQHLGEYENSLAA [V21S], the protein stability index is 3.88.
Regarding NLDTEELCEYFSQHLGEYENDLAA [V21D], the protein stability index turned out to be 4.86.
Turning to NLDTEELCEYFSQHLGEYENQLAA [V21Q], the protein stability index is 3.52.
As to NLDTEELCEYFSQHLGEYENGLAA [V21G], the protein stability index was 4.32.
For NLDTEELCEYFSQHLGEYENHLAA [V21H], the protein stability index was found to be 3.14.
With NLDTEELCEYFSQHLGEYENFLAA [V21F], the protein stability index worked out at 2.08.
As for NLDTEELCEYFSQHLGELENVLAA [Y18L], the protein stability index came to 2.3.
Next, NLDTEELCEYFSQHLGEAENVLAA [Y18A]: 4.2; NLDTEELCEYFSQHLGEPENVLAA [Y18P]: 4.28; NLDTEELCEYFSQHLGERENVLAA [Y18R]: 4.21.
On to NLDTEELCEYFSQHLGENENVLAA [Y18N], for which the protein stability index worked out at 4.27.
Take NLDTEELCEYFSQHLGEDENVLAA [Y18D]: the protein stability index was found to be 5.13.
As for NLDTEELCEYFSQHLGEIENVLAA [Y18I], the protein stability index was 2.07.
Regarding NLDTEDLCEYFSQHLGEYENVLAA [E6D], the protein stability index was determined as 2.53.
Next, NLDTEMLCEYFSQHLGEYENVLAA [E6M]: 1.71; NLDTEILCEYFSQHLGEYENVLAA [E6I]: 2.13.
For the variant NLDTERLCEYFSQHLGEYENVLAA [E6R], the protein stability index stood at 1.8.
Take NLDTECLCEYFSQHLGEYENVLAA [E6C]: the protein stability index was found to be 2.68.
As for NLDTEVLCEYFSQHLGEYENVLAA [E6V], the protein stability index was 2.38.
As to NLDTENLCEYFSQHLGEYENVLAA [E6N], the protein stability index was 2.42.
